In assay [1] the test system is RA FLS. Kind of assay: Intracellular Ca2+ measurement (Fluo3-AM) in RA FLS. Type of assay: cell-based, human. The method, then: The isolated FLS were incubated with Fluo3-AM working solution, containing 0.03% plutonic F-127 (the final concentration of Fluo3-AM was 20 μmol·L^−1) for 1 h at 37° C. After incubation, the cells were washed three times with normal or Na^+- and K^+-free Tyrode's solution, at 25° C. in order to remove the extracellular Fluo3-AM. Fluo3-AM fluorescence in the cells was elicited at 488 nm with a high-power Ar^+ laser, and the emission bands were detected at 530 nm with a photomultiplier. The fluorescence signal was detected using a confocal laser scanning system (Biorad Lasersharp MRA2, Oxfordshire, UK), equipped with a Nikon E-600 Eclipse microscope. The fluorescence intensity (FI) was measured both prior to (FI0) and after (FI) the addition of serum amyloid A (SAA) or phorbol-12-myristate-13-acetate (PMA) to either the normal the Na^+- and K^+-free Tyrode's solution. The change in [Ca^2+]i, was expressed in terms of the (FI−FI0)/FI0 ratio. A total of 50-120 images were scanned in each cell.

Assay [2] relates to RA FLS. In words: Western blot analysis of signaling molecules in RA FLS. The settings on record: for time of peak cyclin D1 expression: SAA 3 μM or WKYMVm 10 nM. Format: cell-based, human. The method, then: RA FLS were incubated for 24 h in DMEM without FBS, and then SAA (SEQ ID NO:19) (3 μM) was added to RA-FLS for the indicated times. The treated RA-FLS was then washed twice in phosphate-buffered saline (PBS), dissolved in sample buffer (50 mM Tris-HCl, 100 mM NaCl, 0.1% sodium dodecyl sulfate (SDS), 1% NP-40, 50 mM NaF, 1 mM Na3VO4, 1 μg/ml aprotinin, 1 μg/ml pepstatin, and 1 μg/ml leupeptin), boiled, separated via SDS-polyacrylamide gel electrophoresis, and transferred to nitrocellulose membranes. After immunoblot analysis with phospho-ERK1/2 (Thr 202/Tyr 204), phospho-Akt (Ser 473), phospho-STAT3 (Tyr 705), Cylin D1, or Bcl-2 antibodies, the membranes were stripped and re-incubated with anti-Actin antibody in order to detect total protein amounts.
In general terms: In western blotting, separated proteins are transferred to a membrane and probed.

Assay [3] has as its system C57BL/6 mice. In words: Mouse Matrigel plug assay. Type of assay: in vivo. The settings on record: 7 days; for vessels in Matrigel (stained sections): SAA 80 μg or WKYMVm 1 μg. The procedure:
C57BL/6 mice (7 weeks of age) were given s.c. injections of 500 μl of Matrigel containing PBS, SAA (SEQ ID NO:19) (80 μg), or WKYMVm (SEQ ID NO:5) (1 μg). After 7 days, the skins of the mice were pulled back to expose the Matrigel plugs, which remained intact. After the noting and photographing of any quantitative differences, hemoglobin levels were measured via the Drabkin method, using a Drabkin reagent kit 525 (Sigma) for the quantitative assessment of blood vessel formation. The hemoglobin concentration was calculated from the parallel assay of a known amount of hemoglobin. The matrigel plugs were fixed in 4% formalin, embedded with paraffin, and stained using hematoxylin and eosin.

In assay [4] the test system is HUVECs. Kind of assay: HUVEC wounding migration assay. Type of assay: cell-based, human. The settings on record: SAA 5 μM, WKYMVm 10 nM, VEGF 20 ng/ml; 12 h. The procedure:
[…] After 12 h of incubation, migration was quantitated via counts of the cells migrating beyond the reference line. For the tube formation assay, the HUVECs were seeded on a layer of previously polymerized Matrigel (BD Biosciences) with SAA (SEQ ID NO:19) (5 μg/ml), WKYMVm (SEQ ID NO:5) peptide (10 nM), a specific ligand for FPRL1 (32, 33) or VEGF (20 ng/ml). After 18 h of incubation, the cell morphology was visualized via phase-contrast microscopy and photographed.

The test system of assay [5] is OA FLS. In words: Cell proliferation assay ([3H]-thymidine incorporation, cell counts) in OA FLS. Type of assay: cell-based, human. As to conditions: 72 h. The method, then:
Fibroblast-like synoviocytes (FLS) were prepared from synovial samples obtained from patients suffering from RA and osteoarthritis (OA), all of whom were also undergoing total joint replacement surgery. The FLS were isolated from the synovial tissues in accordance with a previously described procedure (Cho, C. S., M. L. Cho, S. Y. Min, W. U. Kim, D. J. Min, S. S. Lee, S. H. Park, J. Choe, and H. Y. Kim. 2000. CD40 engagement on synovial fibroblast up-regulates production of vascular endothelial growth factor. J. Immunol. 164: 5055-5061).
In brief, fresh synovial tissues were minced into 2- to 3-mm pieces, then treated for 4 h with 4 mg/ml type I collagenase (Worthington Biochemical), and maintained in Dulbecco's Modified Eagle's Medium (DMEM) containing 10% FBS at 37° C. in an atmosphere containing 5% CO2. […] MH7A cells, the immortalized synoviocytes that harbor the SV40 T antigen, were grown in DMEM supplemented with 10% FBS, as previously described (Miyazawa, K, A. Mori, and H. Okudaira. 1998. Establishment and characterization of a novel human rheumatoid fibroblast-like synoviocyte line, MH7A, immortalized with SV40T antigen. J. Biochem. 124: 1153-1162), and then employed in some of the experiments. Human umbilical vein endothelial cells (HUVECs) were isolated from fresh human umbilical cords via collagenase (Worthington Biochemical) digestion, and then maintained in 20% FBS-containing M-199 medium (Sigma, St. Louis, Mo.), as previously described. All HUVECs were used after no more than five passages.
The RA FLS, OA FLS, and HUVECs were plated onto 24-well culture dishes at a density of 2×10^4 cells/well, and then permitted to attach overnight. After 24 h of serum starvation, the cells were treated for 72 h with a variety of mitogens. [^3H]-thymidine (1 μCi) was added to each of the wells prior to the final 6 h of incubation. Cell growth was also evaluated via cell counts. Control and mitogen-treated cells were harvested by trypsinization, and the number of cells was determined with a hemocytometer, under ×100 magnification.
For orientation: Incorporation of labelled thymidine or its analogues reports DNA synthesis.

Where no end group is shown, it is not given here. [ ]: non-standard residue; d: D form.

In the case of “WKYMVm: specific agonist peptide for FPRL1, SEQ ID NO:5 (WKYMV[dM]; listed as Homo sapiens)”, the “release of intracellular Ca2+” value in assay [1] (WKYMVm 10 nM) is on record as “mimicked”. The “time of peak cyclin D1 expression” value in assay [2] amounted to 4 h. Moreover, the “activation of ERK and Akt” value in assay [2] (WKYMVm 1 to 1000 nM) was “dose and time-dependent activation”. In addition, in assay [3], the “vessels in Matrigel (stained sections)” value is reported as “more vessels”. In assay [4], the “migratory activity of HUVECs relative to control cells” value is given as “approximately 3 times”. Besides, the “DNA synthesis activity / proliferation ([3H]-thymidine incorporation)” value in assay [5] is recorded as “not OA FLS”.

B1: SAA: Serum amyloid A, multi-functional apolipoprotein, 12- to 14-kDa, SEQ ID NO:19 (protein, listed as Homo sapiens)
chain: MKLLTGLVFCSLVLGVSSRSFFSFLGEAFDGARDMWRAYSDMREANYIGSDKYFHARGNYDAAKRGPGGVWAAEAISDARENIQRFFGHGAEDSLADQAANEWGRSGKDPNHFRPAGLPEKY
Regarding B1, the “increase in intracellular Ca2+ compared to basal levels” value in assay [1] (RA FLS, SAA 3 μM) was determined as 2.3 fold. Also, the “earliest detectable ERK1/2 and Akt phosphorylation after stimulation” value in assay [2] (3 μM SAA) was determined as 1 min. Also, the “time of peak cyclin D1 expression” value in assay [2] is 4 h. Moreover, in assay [3] (SAA 80 μg in Matrigel s.c.), the “mean hemoglobin content of Matrigels” value came to 4.90 ± 0.66 g/dL. In addition, the “vessels in Matrigel (stained sections)” value in assay [3] is “more vessels”. For the same molecule, the “migratory activity of HUVECs relative to control cells” value in assay [4] is reported as “approximately 3 times”. For the same molecule, in assay [5], the “DNA synthesis activity / proliferation ([3H]-thymidine incorporation)” value is recorded as “increased in a dose-dependent fashion”, the cell numbers result was “dose-dependently increased” and the “concentration of maximal effect on DNA synthesis” value turned out to be 5 µM.

Source of the values: patent publication US20100291089A1, “LIGAND OF REGULATING IMMUNE RESPONSE, AND USE THEREOF IN TREATING AN IMMUNE RESPONSE-RELATED DISEASE” (POSTECH ACADEMY-INDUSTRY FOUNDATION, priority 2005, published 2010).
